From US20230257470A1 (published 2023)

T1: human FcγRIIb (human, UniProt P31994 43-217, limits assumed)
T1 construct: also called FcyRIfb; FcγIIB
T1 sequence: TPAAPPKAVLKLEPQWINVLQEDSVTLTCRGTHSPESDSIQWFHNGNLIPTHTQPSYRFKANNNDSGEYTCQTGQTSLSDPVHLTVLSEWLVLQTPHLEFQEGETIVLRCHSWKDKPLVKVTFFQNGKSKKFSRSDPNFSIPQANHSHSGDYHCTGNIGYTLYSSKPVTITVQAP

T2: human FcγRIIa type H (human, UniProt P12318 36-217)
T2 construct: also called FcyRIIaH; FcγRIIa(H)
T2 sequence: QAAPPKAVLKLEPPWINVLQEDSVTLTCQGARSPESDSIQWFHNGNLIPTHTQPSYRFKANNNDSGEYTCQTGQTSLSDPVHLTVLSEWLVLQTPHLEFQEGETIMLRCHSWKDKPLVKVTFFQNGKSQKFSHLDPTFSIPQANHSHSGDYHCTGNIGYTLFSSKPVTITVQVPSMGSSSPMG


Columns and labels:
Test in all cases: SPR (Biacore), FcγR over captured antibody; binding amount relative to IL6R-BF648/IL6R-L x100
human FcγRIIb = biological target: T1, human FcγRIIb
human FcγRIa = biological target: T3, human FcγRIa (human, UniProt P12314 16-292, limits assumed)
T3 construct: also called FcyRIa; CD64
T3 sequence (P12314 16-292 limits assumed): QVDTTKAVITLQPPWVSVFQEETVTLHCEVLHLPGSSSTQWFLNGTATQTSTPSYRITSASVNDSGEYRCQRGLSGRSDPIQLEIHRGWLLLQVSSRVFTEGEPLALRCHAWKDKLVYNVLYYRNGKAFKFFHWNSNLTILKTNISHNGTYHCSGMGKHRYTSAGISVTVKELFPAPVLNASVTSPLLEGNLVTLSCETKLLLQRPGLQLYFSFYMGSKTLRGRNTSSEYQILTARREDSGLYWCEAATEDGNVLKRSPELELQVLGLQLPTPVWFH

human FcγRIIIa type V = biological target: T4, human FcγRIIIa type V (human, UniProt P08637 17-208, limits assumed)
T4 construct: also called FcyRIIIa; FcγRIIIaV
T4 sequence (P08637 other isoform, or with tags, fused parts or gaps limits assumed): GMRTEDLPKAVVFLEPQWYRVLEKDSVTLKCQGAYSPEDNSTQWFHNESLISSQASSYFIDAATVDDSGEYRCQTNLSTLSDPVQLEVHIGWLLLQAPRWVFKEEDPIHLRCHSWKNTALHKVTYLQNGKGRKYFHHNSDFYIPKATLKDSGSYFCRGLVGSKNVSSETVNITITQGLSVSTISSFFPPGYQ

human FcγRIIa type H = biological target: T2, human FcγRIIa type H

| relative binding (human FcγRIIb) | relative binding (human FcγRIa) | relative binding (human FcγRIIIa type V) | relative binding (human FcγRIIa type H) | Binder |
| --- | --- | --- | --- | --- |
| 113 % of IL6R-BF648/IL6R-L | 118 % of IL6R-BF648/IL6R-L | 157 % of IL6R-BF648/IL6R-L | 135 % of IL6R-BF648/IL6R-L | IL6R-BP121/IL6R-L (antibody, human IgG1, name in EU numbering) heavy: QVQLQESGPGLVKPSETLSLTCAVSGHSISHDHAWSWVRQPPGEGLEWIGFISYSGITNYNPSLQGRVTISRDNSKNTLYLQMNSLRAEDTAVYYCARSLARTTAMDYWGEGTLVTVSSASTKGPSVFPLAPSSKSTSGGTAALGCLVKDYFPEPVTVSWNSGALTSGVHTFPAVLQSSGLYSLSSVVTVPSSSLGTQTYICNVNHKPSNTKVDKKVEPKSCDKTHTCPPCPAPELLGGDSVFLFPPKPKDTLMISRTPEVTCVVVDVSHEDPEVKFNWYVDGVEVHNAKTKPREEQYNSTYRVVSVLTVLHQDWLNGKEYKCKVSNQALPAPIEKTISKAKGQPREPQVYTLPPSRDELTKNQVSLTCLVKGFYPSDIAVEWESNGQPENNYKTTPPVLDSDGSFFLYSKLTVDKSRWQQGNVFSCSVMHEALHNHYTQESLSLSP light: DIQMTQSPSSLSASVGDRVTITCRASQDISSYLNWYQQKPGKAPKLLIYYTSRLHSGVPSRFSGSGSGTDFTFTISSLQPEDIATYYCQQGNTLPYTFGQGTKVEIK |
| 104 % of IL6R-BF648/IL6R-L | 101 % of IL6R-BF648/IL6R-L | 144 % of IL6R-BF648/IL6R-L | 128 % of IL6R-BF648/IL6R-L | IL6R-BP118/IL6R-L (antibody, human IgG1, name in EU numbering) heavy: QVQLQESGPGLVKPSETLSLTCAVSGHSISHDHAWSWVRQPPGEGLEWIGFISYSGITNYNPSLQGRVTISRDNSKNTLYLQMNSLRAEDTAVYYCARSLARTTAMDYWGEGTLVTVSSASTKGPSVFPLAPSSKSTSGGTAALGCLVKDYFPEPVTVSWNSGALTSGVHTFPAVLQSSGLYSLSSVVTVPSSSLGTQTYICNVNHKPSNTKVDKKVEPKSCDKTHTCPPCPAPELLGGDSVFLFPPKPKDTLMISRTPEVTCVVVDVSHEDPEVKFNWYVDGVEVHNAKTKPREEQYNSTYRVVSVLTVLHQDWLNGKEYKCKVSNSALPAPIEKTISKAKGQPREPQVYTLPPSRDELTKNQVSLTCLVKGFYPSDIAVEWESNGQPENNYKTTPPVLDSDGSFFLYSKLTVDKSRWQQGNVFSCSVMHEALHNHYTQESLSLSP light: DIQMTQSPSSLSASVGDRVTITCRASQDISSYLNWYQQKPGKAPKLLIYYTSRLHSGVPSRFSGSGSGTDFTFTISSLQPEDIATYYCQQGNTLPYTFGQGTKVEIK |
| 110 % of IL6R-BF648/IL6R-L | 117 % of IL6R-BF648/IL6R-L | 145 % of IL6R-BF648/IL6R-L | 133 % of IL6R-BF648/IL6R-L | IL6R-BP119/IL6R-L (antibody, human IgG1, name in EU numbering) heavy: QVQLQESGPGLVKPSETLSLTCAVSGHSISHDHAWSWVRQPPGEGLEWIGFISYSGITNYNPSLQGRVTISRDNSKNTLYLQMNSLRAEDTAVYYCARSLARTTAMDYWGEGTLVTVSSASTKGPSVFPLAPSSKSTSGGTAALGCLVKDYFPEPVTVSWNSGALTSGVHTFPAVLQSSGLYSLSSVVTVPSSSLGTQTYICNVNHKPSNTKVDKKVEPKSCDKTHTCPPCPAPELLGGDSVFLFPPKPKDTLMISRTPEVTCVVVDVSHEDPEVKFNWYVDGVEVHNAKTKPREEQYNSTYRVVSVLTVLHQDWLNGKEYKCKVSNMALPAPIEKTISKAKGQPREPQVYTLPPSRDELTKNQVSLTCLVKGFYPSDIAVEWESNGQPENNYKTTPPVLDSDGSFFLYSKLTVDKSRWQQGNVFSCSVMHEALHNHYTQESLSLSP light: DIQMTQSPSSLSASVGDRVTITCRASQDISSYLNWYQQKPGKAPKLLIYYTSRLHSGVPSRFSGSGSGTDFTFTISSLQPEDIATYYCQQGNTLPYTFGQGTKVEIK |
| 119 % of IL6R-BF648/IL6R-L | 117 % of IL6R-BF648/IL6R-L | 102 % of IL6R-BF648/IL6R-L | 103 % of IL6R-BF648/IL6R-L | IL6R-BP136/IL6R-L (antibody, human IgG1, name in EU numbering) heavy: QVQLQESGPGLVKPSETLSLTCAVSGHSISHDHAWSWVRQPPGEGLEWIGFISYSGITNYNPSLQGRVTISRDNSKNTLYLQMNSLRAEDTAVYYCARSLARTTAMDYWGEGTLVTVSSASTKGPSVFPLAPSSKSTSGGTAALGCLVKDYFPEPVTVSWNSGALTSGVHTFPAVLQSSGLYSLSSVVTVPSSSLGTQTYICNVNHKPSNTKVDKKVEPKSCDKTHTCPPCPAPELLGGDSVFLFPPKPKDTLMISRTPEVTCVVVDVSHEDPEVKFNWYVDGVEVHNAKTKPREEQYNSTYRVVSVLTVLHQDWLNGKEYKCKVSNAALPAPIEKTISKAKGQPREPQVYTLPPSRDELTKNQVSLTCLVKGFYPSDIAVEWESNGQPENNYKTTPPVLDSDGSFFLYSKLTVDKSRWQQGNVFSCSVMHEALHNHYTQESLSLSP light: DIQMTQSPSSLSASVGDRVTITCRASQDISSYLNWYQQKPGKAPKLLIYYTSRLHSGVPSRFSGSGSGTDFTFTISSLQPEDIATYYCQQGNTLPYTFGQGTKVEIK |

Further lines, the binder ahead of its results:

| Binder | relative binding (human FcγRIIb) | relative binding (human FcγRIa) | relative binding (human FcγRIIIa type V) | relative binding (human FcγRIIa type H) |
| --- | --- | --- | --- | --- |
| IL6R-BP103/IL6R-L (antibody, human IgG1, name in EU numbering) heavy: QVQLQESGPGLVKPSETLSLTCAVSGHSISHDHAWSWVRQPPGEGLEWIGFISYSGITNYNPSLQGRVTISRDNSKNTLYLQMNSLRAEDTAVYYCARSLARTTAMDYWGEGTLVTVSSASTKGPSVFPLAPSSKSTSGGTAALGCLVKDYFPEPVTVSWNSGALTSGVHTFPAVLQSSGLYSLSSVVTVPSSSLGTQTYICNVNHKPSNTKVDKKVEPKSCDKTHTCPPCPAPELLGGDSVFLFPPKPKDTLMISRTPEVTCVVVDVVHEDPEVKFNWYVDGVEVHNAKTKPREEQYNSTYRVVSVLTVLHQDWLNGKEYKCKVSNKALPAPIEKTISKAKGQPREPQVYTLPPSRDELTKNQVSLTCLVKGFYPSDIAVEWESNGQPENNYKTTPPVLDSDGSFFLYSKLTVDKSRWQQGNVFSCSVMHEALHNHYTQESLSLSP light: DIQMTQSPSSLSASVGDRVTITCRASQDISSYLNWYQQKPGKAPKLLIYYTSRLHSGVPSRFSGSGSGTDFTFTISSLQPEDIATYYCQQGNTLPYTFGQGTKVEIK | 107 % of IL6R-BF648/IL6R-L | 56 % of IL6R-BF648/IL6R-L | 77 % of IL6R-BF648/IL6R-L | 69 % of IL6R-BF648/IL6R-L |
| IL6R-BP116/IL6R-L (antibody, human IgG1, name in EU numbering) heavy: QVQLQESGPGLVKPSETLSLTCAVSGHSISHDHAWSWVRQPPGEGLEWIGFISYSGITNYNPSLQGRVTISRDNSKNTLYLQMNSLRAEDTAVYYCARSLARTTAMDYWGEGTLVTVSSASTKGPSVFPLAPSSKSTSGGTAALGCLVKDYFPEPVTVSWNSGALTSGVHTFPAVLQSSGLYSLSSVVTVPSSSLGTQTYICNVNHKPSNTKVDKKVEPKSCDKTHTCPPCPAPELLGGDSVFLFPPKPKDTLMISRTPEVTCVVVDVSHEDPEVKFNWYVDGVEVHNAKTKPREEQYNSTYRVVSVLTVLHQDWLNGKEYKCKVSNTALPAPIEKTISKAKGQPREPQVYTLPPSRDELTKNQVSLTCLVKGFYPSDIAVEWESNGQPENNYKTTPPVLDSDGSFFLYSKLTVDKSRWQQGNVFSCSVMHEALHNHYTQESLSLSP light: DIQMTQSPSSLSASVGDRVTITCRASQDISSYLNWYQQKPGKAPKLLIYYTSRLHSGVPSRFSGSGSGTDFTFTISSLQPEDIATYYCQQGNTLPYTFGQGTKVEIK | 108 % of IL6R-BF648/IL6R-L | 110 % of IL6R-BF648/IL6R-L | 114 % of IL6R-BF648/IL6R-L | 110 % of IL6R-BF648/IL6R-L |
| IL6R-BP107/IL6R-L (antibody, human IgG1, name in EU numbering) heavy: QVQLQESGPGLVKPSETLSLTCAVSGHSISHDHAWSWVRQPPGEGLEWIGFISYSGITNYNPSLQGRVTISRDNSKNTLYLQMNSLRAEDTAVYYCARSLARTTAMDYWGEGTLVTVSSASTKGPSVFPLAPSSKSTSGGTAALGCLVKDYFPEPVTVSWNSGALTSGVHTFPAVLQSSGLYSLSSVVTVPSSSLGTQTYICNVNHKPSNTKVDKKVEPKSCDKTHTCPPCPAPELLGGDSVFLFPPKPKDTLMISRTPEVTCVVVDVSEEDPEVKFNWYVDGVEVHNAKTKPREEQYNSTYRVVSVLTVLHQDWLNGKEYKCKVSNKALPAPIEKTISKAKGQPREPQVYTLPPSRDELTKNQVSLTCLVKGFYPSDIAVEWESNGQPENNYKTTPPVLDSDGSFFLYSKLTVDKSRWQQGNVFSCSVMHEALHNHYTQESLSLSP light: DIQMTQSPSSLSASVGDRVTITCRASQDISSYLNWYQQKPGKAPKLLIYYTSRLHSGVPSRFSGSGSGTDFTFTISSLQPEDIATYYCQQGNTLPYTFGQGTKVEIK | 118 % of IL6R-BF648/IL6R-L | 123 % of IL6R-BF648/IL6R-L | 129 % of IL6R-BF648/IL6R-L | 114 % of IL6R-BF648/IL6R-L |
| IL6R-BP106/IL6R-L (antibody, human IgG1, name in EU numbering) heavy: QVQLQESGPGLVKPSETLSLTCAVSGHSISHDHAWSWVRQPPGEGLEWIGFISYSGITNYNPSLQGRVTISRDNSKNTLYLQMNSLRAEDTAVYYCARSLARTTAMDYWGEGTLVTVSSASTKGPSVFPLAPSSKSTSGGTAALGCLVKDYFPEPVTVSWNSGALTSGVHTFPAVLQSSGLYSLSSVVTVPSSSLGTQTYICNVNHKPSNTKVDKKVEPKSCDKTHTCPPCPAPELLGGDSVFLFPPKPKDTLMISRTPEVTCVVVDVSDEDPEVKFNWYVDGVEVHNAKTKPREEQYNSTYRVVSVLTVLHQDWLNGKEYKCKVSNKALPAPIEKTISKAKGQPREPQVYTLPPSRDELTKNQVSLTCLVKGFYPSDIAVEWESNGQPENNYKTTPPVLDSDGSFFLYSKLTVDKSRWQQGNVFSCSVMHEALHNHYTQESLSLSP light: DIQMTQSPSSLSASVGDRVTITCRASQDISSYLNWYQQKPGKAPKLLIYYTSRLHSGVPSRFSGSGSGTDFTFTISSLQPEDIATYYCQQGNTLPYTFGQGTKVEIK | 116 % of IL6R-BF648/IL6R-L | 127 % of IL6R-BF648/IL6R-L | 127 % of IL6R-BF648/IL6R-L | 110 % of IL6R-BF648/IL6R-L |
